The RNAGym collection of RNA variant scans (doi:10.1093/molbev/msab373)

B1: Azoarcus group I ribozyme (parent)
chain: GUGCCUUGCGCCGGGAAACCACGCAAGGGAUGGUGUCAAAUUCGGCGAAACCUAAGCGCCCGCCCGGGCGUAUGGCAACGCCGAGCCAAGCUUCGGCGCCUGCGCCGAUGAAGGUGUAGAGACUAGACGGCACCCACCUAAGGCAAACGCUAUGGUGAAGGCAUAGUCCAGGGAGUGGCGAAAGUCACACAAACCGG

Variants of: B1
Experiment: reverse-splicing fitness (ratio to wild type); higher = more active; in vitro selection; Mg2+ level not given
How it was run: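 An in vitro group I ribozyme library with randomized positions was T7-transcribed and gel-purified. In triplicate, 10 pmol RNA in EPPS pH 7.5 was reacted with 50 pmoles of a 30-nt RNA substrate for 1 h at 37 °C across several added MgCl2 levels (1–48 mM), then stopped with EDTA. Products were reverse transcribed from a substrate-complementary primer, PCR-amplified and sequenced (HiSeq 4000). Fitness is a variant's read proportion after selection over that before, normalised to wild type.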

| Variant | reverse-splicing fitness |
| --- | --- |
| C82G A111G A120G A145U C150U C169G U176C | 0.0179 |
| C82G A111G A120G A145U C150U C169G U176G | 0.00518 |
| C82G A111G A120G A145U C150U C169U | 0.0114 |
| C82G A111G A120G A145U C150U C169U U176A | 0.0186 |
| C82G A111G A120G A145U C150U C169U U176C | 0.0182 |
| C82G A111G A120G A145U C150U C169U U176G | 0.00452 |
| C82G A111G A120G A145U C150U U176A | 0.0125 |
| C82G A111G A120G A145U C150U U176C | 0.0212 |
| C82G A111G A120G A145U C150U U176G | 0.00626 |
| C82G A111G A120G A145U C169A | 0.0118 |
| C82G A111G A120G A145U C169A U176A | 0.0151 |
| C82G A111G A120G A145U C169A U176C | 0.0152 |
| C82G A111G A120G A145U C169A U176G | 0.00446 |
| C82G A111G A120G A145U C169G | 0.0203 |
| C82G A111G A120G A145U C169G U176A | 0.0149 |
| C82G A111G A120G A145U C169G U176C | 0.0187 |
| C82G A111G A120G A145U C169G U176G | 0.0044 |
| C82G A111G A120G A145U C169U | 0.012 |
| C82G A111G A120G A145U C169U U176A | 0.0191 |
| C82G A111G A120G A145U C169U U176C | 0.0161 |
| C82G A111G A120G A145U C169U U176G | 0.00384 |

| Variant | reverse-splicing fitness |
| --- | --- |
| C82G A111G A120G A145U U176A | 0.0167 |
| C82G A111G A120G A145U U176C | 0.0242 |
| C82G A111G A120G A145U U176G | 0.00543 |
| C82G A111G A120G C150A | 0.0101 |
| C82G A111G A120G C150A C169A | 0.0123 |
| C82G A111G A120G C150A C169A U176A | 0.0233 |
| C82G A111G A120G C150A C169A U176C | 0.0216 |
| C82G A111G A120G C150A C169A U176G | 0.00698 |
| C82G A111G A120G C150A C169G | 0.0105 |
| C82G A111G A120G C150A C169G U176A | 0.0239 |
| C82G A111G A120G C150A C169G U176C | 0.0263 |
| C82G A111G A120G C150A C169G U176G | 0.00621 |
| C82G A111G A120G C150A C169U | 0.00799 |
| C82G A111G A120G C150A C169U U176A | 0.021 |
| C82G A111G A120G C150A C169U U176C | 0.0176 |
| C82G A111G A120G C150A C169U U176G | 0.00912 |
| C82G A111G A120G C150A U176A | 0.0148 |
| C82G A111G A120G C150A U176C | 0.023 |
| C82G A111G A120G C150A U176G | 0.0109 |
| C82G A111G A120G C150G | 0.00784 |
| C82G A111G A120G C150G C169A | 0.00983 |

| Variant | reverse-splicing fitness |
| --- | --- |
| C82G A111G A120G C150G C169A U176A | 0.0118 |
| C82G A111G A120G C150G C169A U176C | 0.0135 |
| C82G A111G A120G C150G C169A U176G | 0.00685 |
| C82G A111G A120G C150G C169G | 0.00788 |
| C82G A111G A120G C150G C169G U176A | 0.00837 |
| C82G A111G A120G C150G C169G U176C | 0.00628 |
| C82G A111G A120G C150G C169G U176G | 0.0053 |
| C82G A111G A120G C150G C169U | 0.0094 |
| C82G A111G A120G C150G C169U U176A | 0.0119 |
| C82G A111G A120G C150G C169U U176C | 0.0158 |
| C82G A111G A120G C150G C169U U176G | 0.00715 |
| C82G A111G A120G C150G U176A | 0.0085 |
| C82G A111G A120G C150G U176C | 0.0157 |
| C82G A111G A120G C150G U176G | 0.00387 |
| C82G A111G A120G C150U | 0.0156 |
| C82G A111G A120G C150U C169A | 0.0118 |
| C82G A111G A120G C150U C169A U176A | 0.0193 |
| C82G A111G A120G C150U C169A U176C | 0.0197 |
| C82G A111G A120G C150U C169A U176G | 0.00607 |
| C82G A111G A120G C150U C169G | 0.0154 |
| C82G A111G A120G C150U C169G U176A | 0.0182 |

| Variant | reverse-splicing fitness |
| --- | --- |
| C82G A111G A120G C150U C169G U176C | 0.0206 |
| C82G A111G A120G C150U C169G U176G | 0.00549 |
| C82G A111G A120G C150U C169U | 0.0114 |
| C82G A111G A120G C150U C169U U176A | 0.0189 |
| C82G A111G A120G C150U C169U U176C | 0.0174 |
| C82G A111G A120G C150U C169U U176G | 0.00864 |
| C82G A111G A120G C150U U176A | 0.012 |
| C82G A111G A120G C150U U176C | 0.0211 |
| C82G A111G A120G C150U U176G | 0.00986 |
| C82G A111G A120G C169A | 0.0124 |
| C82G A111G A120G C169A U176A | 0.022 |
| C82G A111G A120G C169A U176C | 0.0232 |
| C82G A111G A120G C169A U176G | 0.00429 |
| C82G A111G A120G C169G | 0.0219 |
| C82G A111G A120G C169G U176A | 0.0194 |
| C82G A111G A120G C169G U176C | 0.0232 |
| C82G A111G A120G C169G U176G | 0.00487 |
| C82G A111G A120G C169U | 0.0144 |
| C82G A111G A120G C169U U176A | 0.0199 |
| C82G A111G A120G C169U U176C | 0.0198 |
| C82G A111G A120G C169U U176G | 0.00595 |
